B1: Protein enabled (Drosophila melanogaster (Fruit fly)), Q8T4F7 (parent)
chain: MAMKKLYAKTSFTSKKPSSAANSTPILAYHQQQHQQPGNGICEFQVVAPGHSGELMIRRSQSMHHKMSPPVGGLGSKSEYYSIEELQELDLLDYRHPMYHHYQQQELRQRYHEHEQLVLQLPKATSPKAGPIYEAPQRSQQQQDQMLYVPTAAQRDSSSSAAATSIASSSTLTSSPSPSSSSSLIFSTLRKCVSPSNPSVNPNQPSKTQPSKLGCSMSFSIRTTTATAATAAAANAATATLSTQQQQQQAQQQHKQHLYSNIHHYLIRQQQQKQHYTLQRRHNSVKDKFIGGITTIFAEQSIIGARASVMVYDDNQKKWVPSGSSSGLSKVQIYHHQQNNTFRVVGRKLQDHEVVINCSILKGLKYNQATATFHQWRDSKFVYGLNFSSQNDAENFARAMMHALEVLSGRVANNPGGPPTNGNGYEEDMGYRTMTSEDAAILRQNNSIGGHVTPSAQTPTSQTNQNNIPQSPPTPQGHHRTSSAPPAPQPQQQQQQQQAQQMGQPGSHYGPTGNGPTSNGLPQQVNSQIPPAPQQQPQQQQFQQQQQQQQYQQMVQAGYAPSQQYQQPHYVLSNSNPNLTVHQYPTQQAQQQPPQAPQPPLQNGGMYMVGHGHLPSSASANSVVYASQQQMLPQAHPQAPQAPTMPGPGYGGPPVPPPQQQAENPYGQVPMPPPMNPSQQQQPGQVPLNRMSSQGGPGGPPAPAPPPPPPSFGGAAGGGPPPPAPPQMFNGAPPPPAMGGGPPPAPPAPPAMGGGPPPAPGGPGAPPPPPPPPGLGGAPKKEDPQADLMGSLASQLQQIKLKKNKVTTSAPENSGSSTSSGGSGNYGTIGRSSNGMASMMDEMAKTLARRRAQAEKKDPDPEAEVKKRPWEKSNTLPHKLSGGAGSGSAGSGHEGANGNSGGAGSNTTNSGGESPRPMRKRFGSASEETILKVNGDGLSLALSNGDLDTLKAEIVREMRLEIQKVKNEIIDAIKSEFNRR

Tests used:
abl_drome Abl, P00522 = variants of: B1; details: with abl_drome Abl
src_mouse Src, P05480 = variants of: B1; details: with src_mouse Src

Sequence of abl_drome Abl, P00522 (P00522 whole entry): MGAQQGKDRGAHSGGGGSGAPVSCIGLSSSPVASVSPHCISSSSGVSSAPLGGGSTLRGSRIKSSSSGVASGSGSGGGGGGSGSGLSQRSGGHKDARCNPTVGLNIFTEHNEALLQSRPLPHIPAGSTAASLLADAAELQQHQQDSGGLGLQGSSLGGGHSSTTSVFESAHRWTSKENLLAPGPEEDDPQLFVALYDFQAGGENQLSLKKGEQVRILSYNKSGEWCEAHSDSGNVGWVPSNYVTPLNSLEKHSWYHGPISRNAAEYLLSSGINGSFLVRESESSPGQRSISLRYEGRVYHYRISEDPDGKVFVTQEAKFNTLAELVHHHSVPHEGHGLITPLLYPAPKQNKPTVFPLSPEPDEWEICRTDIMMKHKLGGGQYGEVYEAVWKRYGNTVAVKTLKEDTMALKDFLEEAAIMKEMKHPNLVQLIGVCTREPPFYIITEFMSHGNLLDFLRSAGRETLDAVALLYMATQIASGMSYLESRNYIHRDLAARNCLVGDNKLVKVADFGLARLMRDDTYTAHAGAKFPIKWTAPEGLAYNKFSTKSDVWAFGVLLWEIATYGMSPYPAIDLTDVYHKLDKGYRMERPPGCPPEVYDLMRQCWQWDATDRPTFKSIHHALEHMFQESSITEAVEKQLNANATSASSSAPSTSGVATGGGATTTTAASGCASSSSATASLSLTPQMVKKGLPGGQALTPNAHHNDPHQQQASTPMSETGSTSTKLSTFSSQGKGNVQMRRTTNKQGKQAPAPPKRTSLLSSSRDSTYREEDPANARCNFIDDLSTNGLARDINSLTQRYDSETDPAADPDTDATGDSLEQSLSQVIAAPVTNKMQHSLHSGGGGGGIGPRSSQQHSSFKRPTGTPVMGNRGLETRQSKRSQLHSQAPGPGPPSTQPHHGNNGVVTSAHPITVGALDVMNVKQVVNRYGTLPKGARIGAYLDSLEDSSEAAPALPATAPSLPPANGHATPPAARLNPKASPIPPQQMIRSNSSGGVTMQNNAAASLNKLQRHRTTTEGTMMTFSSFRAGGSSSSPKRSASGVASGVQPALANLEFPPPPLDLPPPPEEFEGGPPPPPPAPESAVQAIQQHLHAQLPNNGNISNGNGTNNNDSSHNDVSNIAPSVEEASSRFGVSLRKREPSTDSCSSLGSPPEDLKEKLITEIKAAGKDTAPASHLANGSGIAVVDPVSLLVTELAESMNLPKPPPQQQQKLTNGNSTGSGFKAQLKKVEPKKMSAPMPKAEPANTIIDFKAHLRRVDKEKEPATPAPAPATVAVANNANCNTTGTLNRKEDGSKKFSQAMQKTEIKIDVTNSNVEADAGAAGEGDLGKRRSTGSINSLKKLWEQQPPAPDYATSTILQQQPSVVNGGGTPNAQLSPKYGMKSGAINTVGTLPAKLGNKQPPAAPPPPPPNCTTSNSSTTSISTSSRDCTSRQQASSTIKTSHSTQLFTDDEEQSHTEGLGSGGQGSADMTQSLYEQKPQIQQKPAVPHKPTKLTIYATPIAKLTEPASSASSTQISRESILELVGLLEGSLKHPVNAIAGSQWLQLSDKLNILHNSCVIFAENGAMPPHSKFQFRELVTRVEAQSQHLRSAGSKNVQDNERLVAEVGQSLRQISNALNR

| effect of a mutation on the interaction (abl_drome Abl, P00522) | effect of a mutation on the interaction (src_mouse Src, P05480) | Variant |
| --- | --- | --- |
| decreasing interaction | decreasing interaction | P763A;P770A;P771A;P772A |
| decreasing interaction | decreasing interaction | P701A;P707A;P708A;P709A |
